Source: patent publication US20140072613A1, “Compositions and Methods for Treating Cutaneous Scarring” (priority 2012, published 2014)

Assays:
Assay in all cases: cell-based or functional assay
SIK(h) (human) = SIK(h) (human) (UniProt P57059)
PKCε(h) (human) = PKCε(h) (human) (UniProt Q02156)
WNK3(h) (human) = WNK3(h) (human) (UniProt Q9BYP7)
CaMKIIδ(h) (human) = CaMKIIδ(h) (human) (UniProt Q13557)
TLK2(h) (human) = TLK2(h) (human) (UniProt Q86UE8)
Abl(Q252H)(h) (human) = Abl(Q252H)(h) (human) (UniProt P00519)
EphA7(h) (human) = EphA7(h) (human) (UniProt Q15375)
Met(M1268T)(h) (human) = Met(M1268T)(h) (human) (UniProt P08581)
DMPK(h) (human) = DMPK(h) (human) (UniProt Q09013)
DRAK1(h) (human) = DRAK1(h) (human) (UniProt Q9UEE5)
EphA8(h) (human) = target: T1, EphA8(h) (human) (UniProt P29322)
T1 sequence (looked up): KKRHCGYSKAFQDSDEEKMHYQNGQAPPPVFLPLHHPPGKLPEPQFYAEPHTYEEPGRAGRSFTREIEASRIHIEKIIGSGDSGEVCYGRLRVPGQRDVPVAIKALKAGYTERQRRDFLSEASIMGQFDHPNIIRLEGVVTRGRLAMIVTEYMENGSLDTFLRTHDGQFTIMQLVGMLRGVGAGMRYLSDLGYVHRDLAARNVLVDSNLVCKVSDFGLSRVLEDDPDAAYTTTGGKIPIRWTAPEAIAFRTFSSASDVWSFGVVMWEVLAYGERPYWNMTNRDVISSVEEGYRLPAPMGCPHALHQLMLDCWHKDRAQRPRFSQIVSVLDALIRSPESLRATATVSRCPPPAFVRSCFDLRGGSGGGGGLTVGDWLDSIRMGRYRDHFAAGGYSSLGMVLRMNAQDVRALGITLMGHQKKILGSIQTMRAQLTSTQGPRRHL

LOK(h) (human) = LOK(h) (human) (UniProt O94804)
DCAMKL2(h) (human) = target: T2, DCAMKL2(h) (human) (UniProt Q8N568)
T2 sequence (looked up): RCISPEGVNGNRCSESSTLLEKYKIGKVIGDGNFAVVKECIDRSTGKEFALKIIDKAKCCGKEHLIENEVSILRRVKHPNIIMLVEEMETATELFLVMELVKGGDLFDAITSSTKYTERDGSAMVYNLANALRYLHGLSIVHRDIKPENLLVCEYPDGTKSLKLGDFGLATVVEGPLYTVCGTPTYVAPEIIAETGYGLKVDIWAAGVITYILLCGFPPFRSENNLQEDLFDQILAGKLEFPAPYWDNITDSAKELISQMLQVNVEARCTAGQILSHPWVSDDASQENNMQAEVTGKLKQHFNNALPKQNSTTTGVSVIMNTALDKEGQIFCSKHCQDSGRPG

Syk(h) (human) = Syk(h) (human) (UniProt P43405)
PKCγ(h) (human) = PKCγ(h) (human) (UniProt P05129)
AMPKα1(h) (human) = AMPKα1(h) (human) (UniProt Q13131)
Lck(h) (human) = Lck(h) (human) (UniProt P06239)
PDGFRα(D842V)(h) (human) = PDGFRα(D842V)(h) (human) (UniProt P16234)
MSK1(h) (human) = MSK1(h) (human) (UniProt O75582)
Aurora-B(h) (human) = Aurora-B(h) (human) (UniProt Q96GD4)
EphB3(h) (human) = EphB3(h) (human) (UniProt P54753)
SGK3(h) (human) = target: T3, SGK3(h) (human) (UniProt Q96BR1)
T3 sequence (looked up): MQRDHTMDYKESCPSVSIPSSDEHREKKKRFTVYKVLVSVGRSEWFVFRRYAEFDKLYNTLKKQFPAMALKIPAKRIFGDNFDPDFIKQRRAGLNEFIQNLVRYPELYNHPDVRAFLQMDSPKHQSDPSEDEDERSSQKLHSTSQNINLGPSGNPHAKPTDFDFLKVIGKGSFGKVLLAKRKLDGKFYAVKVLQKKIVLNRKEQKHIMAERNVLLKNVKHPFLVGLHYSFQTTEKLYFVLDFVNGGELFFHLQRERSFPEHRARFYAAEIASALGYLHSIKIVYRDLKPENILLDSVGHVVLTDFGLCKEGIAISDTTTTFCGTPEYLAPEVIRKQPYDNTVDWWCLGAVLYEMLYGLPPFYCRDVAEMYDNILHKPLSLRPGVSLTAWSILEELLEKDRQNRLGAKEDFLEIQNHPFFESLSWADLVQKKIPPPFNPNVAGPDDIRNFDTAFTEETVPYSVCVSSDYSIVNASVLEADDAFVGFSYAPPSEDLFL

MST1(h) (human) = target: T4, MST1(h) (human) (UniProt Q13043)
T4 sequence (looked up): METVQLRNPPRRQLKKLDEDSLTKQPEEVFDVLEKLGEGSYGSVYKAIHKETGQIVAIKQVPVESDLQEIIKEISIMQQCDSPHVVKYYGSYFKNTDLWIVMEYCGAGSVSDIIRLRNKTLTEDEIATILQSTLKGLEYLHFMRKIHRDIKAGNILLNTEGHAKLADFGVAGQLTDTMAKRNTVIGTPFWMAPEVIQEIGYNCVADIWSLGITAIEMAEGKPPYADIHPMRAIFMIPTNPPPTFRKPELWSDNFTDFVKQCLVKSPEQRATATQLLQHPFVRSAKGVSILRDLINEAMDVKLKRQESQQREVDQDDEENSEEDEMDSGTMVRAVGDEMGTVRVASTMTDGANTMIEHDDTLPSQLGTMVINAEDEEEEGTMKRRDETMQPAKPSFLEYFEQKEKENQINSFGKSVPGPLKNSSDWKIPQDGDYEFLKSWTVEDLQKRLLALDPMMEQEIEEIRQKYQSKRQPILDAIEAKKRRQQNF

Rsk3(h) (human) = Rsk3(h) (human) (UniProt Q15349)
KDR(h) (human) = KDR(h) (human) (UniProt P35968)
Fes(h) (human) = Fes(h) (human) (UniProt P07332)
IRAK1(h) (human) = IRAK1(h) (human) (UniProt P51617)

Sequence of Rsk3(h) (human) (Q15349 whole entry): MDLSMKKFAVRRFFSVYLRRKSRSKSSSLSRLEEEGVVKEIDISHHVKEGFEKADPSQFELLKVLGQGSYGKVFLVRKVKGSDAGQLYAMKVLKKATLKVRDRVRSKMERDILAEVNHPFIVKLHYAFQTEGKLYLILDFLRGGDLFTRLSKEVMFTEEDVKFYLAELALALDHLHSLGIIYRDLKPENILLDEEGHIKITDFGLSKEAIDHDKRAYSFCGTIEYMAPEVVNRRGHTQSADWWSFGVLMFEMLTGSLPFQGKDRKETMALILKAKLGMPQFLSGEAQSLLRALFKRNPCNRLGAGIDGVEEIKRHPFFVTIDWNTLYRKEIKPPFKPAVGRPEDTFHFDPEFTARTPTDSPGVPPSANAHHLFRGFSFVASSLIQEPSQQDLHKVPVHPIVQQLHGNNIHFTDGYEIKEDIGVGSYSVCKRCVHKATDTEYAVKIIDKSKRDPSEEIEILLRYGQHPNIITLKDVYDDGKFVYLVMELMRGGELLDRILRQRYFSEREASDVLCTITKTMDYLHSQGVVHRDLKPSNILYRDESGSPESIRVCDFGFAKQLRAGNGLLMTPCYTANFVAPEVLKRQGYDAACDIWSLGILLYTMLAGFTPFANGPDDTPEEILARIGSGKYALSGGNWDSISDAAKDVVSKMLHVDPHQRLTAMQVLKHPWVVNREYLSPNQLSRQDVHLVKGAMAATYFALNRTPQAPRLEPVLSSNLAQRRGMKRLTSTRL
Sequence of Fes(h) (human) (P07332 whole entry): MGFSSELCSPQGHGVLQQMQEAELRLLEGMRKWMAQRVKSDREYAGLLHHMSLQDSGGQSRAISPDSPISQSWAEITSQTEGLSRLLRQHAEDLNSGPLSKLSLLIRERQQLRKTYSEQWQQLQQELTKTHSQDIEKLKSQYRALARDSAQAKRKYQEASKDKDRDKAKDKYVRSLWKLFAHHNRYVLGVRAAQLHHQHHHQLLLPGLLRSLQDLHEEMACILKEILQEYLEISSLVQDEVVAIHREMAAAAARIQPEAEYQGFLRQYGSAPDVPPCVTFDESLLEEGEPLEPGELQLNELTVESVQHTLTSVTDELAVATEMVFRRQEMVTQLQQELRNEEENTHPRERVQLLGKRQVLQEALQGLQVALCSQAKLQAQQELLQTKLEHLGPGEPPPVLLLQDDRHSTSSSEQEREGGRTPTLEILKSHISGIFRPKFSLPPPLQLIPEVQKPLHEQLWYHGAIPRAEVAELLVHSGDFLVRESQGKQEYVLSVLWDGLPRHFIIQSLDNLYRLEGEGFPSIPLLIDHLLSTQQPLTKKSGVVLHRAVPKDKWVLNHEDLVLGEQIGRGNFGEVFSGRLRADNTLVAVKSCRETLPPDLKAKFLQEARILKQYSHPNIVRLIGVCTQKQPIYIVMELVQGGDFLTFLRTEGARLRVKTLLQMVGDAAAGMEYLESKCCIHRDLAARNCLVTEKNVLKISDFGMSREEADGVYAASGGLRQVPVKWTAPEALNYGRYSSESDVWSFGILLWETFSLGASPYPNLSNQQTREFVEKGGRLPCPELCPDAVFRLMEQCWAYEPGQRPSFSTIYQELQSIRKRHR
Sequence of KDR(h) (human) (P35968 790-1356 limits assumed): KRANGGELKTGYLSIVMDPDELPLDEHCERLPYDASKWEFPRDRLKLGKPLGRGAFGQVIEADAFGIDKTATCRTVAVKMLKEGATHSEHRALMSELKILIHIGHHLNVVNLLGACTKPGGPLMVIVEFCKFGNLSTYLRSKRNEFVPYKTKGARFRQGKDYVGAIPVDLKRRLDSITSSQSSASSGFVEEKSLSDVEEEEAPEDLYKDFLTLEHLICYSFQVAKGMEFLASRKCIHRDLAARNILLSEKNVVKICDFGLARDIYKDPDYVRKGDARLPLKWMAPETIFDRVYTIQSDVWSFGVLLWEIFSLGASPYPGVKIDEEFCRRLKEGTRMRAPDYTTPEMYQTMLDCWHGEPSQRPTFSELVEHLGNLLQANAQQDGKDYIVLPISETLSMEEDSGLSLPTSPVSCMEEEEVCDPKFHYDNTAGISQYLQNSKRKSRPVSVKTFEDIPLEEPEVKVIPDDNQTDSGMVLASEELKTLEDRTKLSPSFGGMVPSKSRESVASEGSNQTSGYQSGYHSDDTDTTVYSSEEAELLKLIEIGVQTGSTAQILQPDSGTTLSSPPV
Sequence of Lck(h) (human) (P06239 whole entry): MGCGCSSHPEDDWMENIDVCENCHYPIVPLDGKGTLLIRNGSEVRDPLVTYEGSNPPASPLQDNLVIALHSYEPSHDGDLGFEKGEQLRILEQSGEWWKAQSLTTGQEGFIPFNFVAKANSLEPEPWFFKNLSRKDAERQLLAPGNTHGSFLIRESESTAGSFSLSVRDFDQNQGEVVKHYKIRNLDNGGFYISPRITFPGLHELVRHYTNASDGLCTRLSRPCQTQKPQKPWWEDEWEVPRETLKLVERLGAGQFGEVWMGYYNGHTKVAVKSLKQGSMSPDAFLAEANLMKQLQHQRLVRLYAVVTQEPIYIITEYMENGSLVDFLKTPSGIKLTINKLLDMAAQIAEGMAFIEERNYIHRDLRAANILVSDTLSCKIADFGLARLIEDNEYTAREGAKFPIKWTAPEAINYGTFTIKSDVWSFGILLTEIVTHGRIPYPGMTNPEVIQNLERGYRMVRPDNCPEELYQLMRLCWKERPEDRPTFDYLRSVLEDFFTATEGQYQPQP
Sequence of DMPK(h) (human) (Q09013 whole entry): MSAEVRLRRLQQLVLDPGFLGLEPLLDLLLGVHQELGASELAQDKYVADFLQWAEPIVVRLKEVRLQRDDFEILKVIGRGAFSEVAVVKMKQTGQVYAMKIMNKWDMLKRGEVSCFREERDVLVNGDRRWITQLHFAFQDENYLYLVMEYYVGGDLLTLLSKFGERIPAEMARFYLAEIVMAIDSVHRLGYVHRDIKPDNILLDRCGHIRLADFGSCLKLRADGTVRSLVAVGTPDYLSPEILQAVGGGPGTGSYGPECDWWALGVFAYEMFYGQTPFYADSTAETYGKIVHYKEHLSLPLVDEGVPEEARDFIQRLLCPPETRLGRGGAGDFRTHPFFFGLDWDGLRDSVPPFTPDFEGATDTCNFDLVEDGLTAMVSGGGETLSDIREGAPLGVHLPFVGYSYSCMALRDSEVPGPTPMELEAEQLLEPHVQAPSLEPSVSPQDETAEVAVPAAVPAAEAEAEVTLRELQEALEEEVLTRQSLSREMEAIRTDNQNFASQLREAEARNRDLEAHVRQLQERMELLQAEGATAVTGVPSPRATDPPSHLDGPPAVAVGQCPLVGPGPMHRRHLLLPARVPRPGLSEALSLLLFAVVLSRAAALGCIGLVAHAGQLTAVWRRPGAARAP
Sequence of PDGFRα(D842V)(h) (human) (P16234 550-1089 D842V limits assumed): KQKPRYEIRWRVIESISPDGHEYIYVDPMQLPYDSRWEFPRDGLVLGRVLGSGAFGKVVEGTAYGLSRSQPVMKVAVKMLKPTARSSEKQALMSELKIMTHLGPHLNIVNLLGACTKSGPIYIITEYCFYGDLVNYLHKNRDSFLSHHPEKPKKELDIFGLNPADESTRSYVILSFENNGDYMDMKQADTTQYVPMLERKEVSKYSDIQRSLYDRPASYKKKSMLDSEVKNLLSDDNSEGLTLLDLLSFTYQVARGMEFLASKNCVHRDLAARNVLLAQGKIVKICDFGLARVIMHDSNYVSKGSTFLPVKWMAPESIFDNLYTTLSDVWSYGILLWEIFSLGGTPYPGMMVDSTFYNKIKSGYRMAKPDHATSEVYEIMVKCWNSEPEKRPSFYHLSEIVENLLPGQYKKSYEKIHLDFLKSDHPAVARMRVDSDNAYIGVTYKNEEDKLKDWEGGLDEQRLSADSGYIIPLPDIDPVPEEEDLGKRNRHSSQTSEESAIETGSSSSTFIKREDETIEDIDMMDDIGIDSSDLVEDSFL
Sequence of AMPKα1(h) (human) (Q13131 whole entry): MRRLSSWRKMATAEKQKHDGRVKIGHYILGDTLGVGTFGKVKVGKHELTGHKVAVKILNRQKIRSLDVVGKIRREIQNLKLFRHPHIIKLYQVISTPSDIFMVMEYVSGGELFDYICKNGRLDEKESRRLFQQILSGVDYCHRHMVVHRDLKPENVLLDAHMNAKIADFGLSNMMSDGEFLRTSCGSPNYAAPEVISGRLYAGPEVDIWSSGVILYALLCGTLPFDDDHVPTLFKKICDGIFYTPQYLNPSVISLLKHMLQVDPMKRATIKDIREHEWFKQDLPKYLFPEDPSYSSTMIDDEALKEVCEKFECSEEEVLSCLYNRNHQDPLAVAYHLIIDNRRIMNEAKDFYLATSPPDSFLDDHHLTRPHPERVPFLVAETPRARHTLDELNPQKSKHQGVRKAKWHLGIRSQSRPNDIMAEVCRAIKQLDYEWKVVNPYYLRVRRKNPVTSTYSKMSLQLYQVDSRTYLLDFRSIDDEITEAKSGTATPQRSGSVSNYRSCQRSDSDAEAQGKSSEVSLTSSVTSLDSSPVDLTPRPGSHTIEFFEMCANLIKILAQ
Sequence of DRAK1(h) (human) (Q9UEE5 whole entry): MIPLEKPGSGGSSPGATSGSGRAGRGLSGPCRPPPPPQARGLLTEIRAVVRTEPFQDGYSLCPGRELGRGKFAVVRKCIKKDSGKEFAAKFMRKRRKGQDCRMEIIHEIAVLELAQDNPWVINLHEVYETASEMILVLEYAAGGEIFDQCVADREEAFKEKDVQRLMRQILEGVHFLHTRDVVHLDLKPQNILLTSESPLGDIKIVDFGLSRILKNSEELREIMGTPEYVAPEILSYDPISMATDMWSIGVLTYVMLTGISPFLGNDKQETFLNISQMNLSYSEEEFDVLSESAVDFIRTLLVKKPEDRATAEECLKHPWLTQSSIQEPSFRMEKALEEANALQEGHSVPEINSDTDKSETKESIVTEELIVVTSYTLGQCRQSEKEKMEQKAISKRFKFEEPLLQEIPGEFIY

Substance: MMI-0500 (peptide)
- % activity, 100 µM (SIK(h) (human)): 40%
- % activity, 100 µM (PKCε(h) (human)): 23%
- % activity, 100 µM (WNK3(h) (human)): 9%
- % activity, 100 µM (CaMKIIδ(h) (human)): 1%
- % activity, 100 µM (TLK2(h) (human)): 133%
- % activity, 100 µM (Abl(Q252H)(h) (human)): 40%
- % activity, 100 µM (EphA7(h) (human)): 189%
- % activity, 100 µM (Met(M1268T)(h) (human)): 239%
- % activity, 100 µM (DMPK(h) (human)): 12%
- % activity, 100 µM (DRAK1(h) (human)): 8%
- % activity, 100 µM (EphA8(h) (human)): 337%
- % activity, 100 µM (LOK(h) (human)): 7%
- % activity, 100 µM (DCAMKL2(h) (human)): 56%
- % activity, 100 µM (Syk(h) (human)): 5%
- % activity, 100 µM (PKCγ(h) (human)): 6%
- % activity, 100 µM (AMPKα1(h) (human)): 35%
- % activity, 100 µM (Lck(h) (human)): 359%
- % activity, 100 µM (PDGFRα(D842V)(h) (human)): 170%
- % activity, 100 µM (MSK1(h) (human)): 8%
- % activity, 100 µM (Aurora-B(h) (human)): 5%
- % activity, 100 µM (EphB3(h) (human)): 79%
- % activity, 100 µM (SGK3(h) (human)): -3%
- % activity, 100 µM (MST1(h) (human)): 3%
- % activity, 100 µM (Rsk3(h) (human)): 23%
- % activity, 100 µM (KDR(h) (human)): 15%
- % activity, 100 µM (Fes(h) (human)): 23%
- % activity, 100 µM (IRAK1(h) (human)): 5%
